Assay results published in article PMC8877046, “Interferon-β Activity Is Affected by S100B Protein” (International Journal of Molecular Sciences, 2013).

Tests used:
[1] = target: IFNAR2 ECD (Homo sapiens) (UniProt P48551); details: cited from earlier work
[2] = target: T1, Human S100B protein (human), P04271; test: SPR; S100B immobilised by amine coupling on ProteOn GLH chip (up to 9000 RU); analyte 10-80 nM IFN-β; 25 °C; 10 mM HEPES, 150 mM NaCl, 0.05% TWEEN 20, 1 mM CaCl2, pH 7.4; heterogeneous ligand model (two populations of ligand); details: remark: other sources report otherwise
T1 chain: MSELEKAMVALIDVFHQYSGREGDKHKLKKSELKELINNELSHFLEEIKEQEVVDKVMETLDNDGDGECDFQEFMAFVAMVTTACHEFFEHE

[3] = target: the molecule itself; test: cross-linking; 5 µM IFN-β alone; 40 mM EDAC, 10 mM sulfo-NHS, 25 °C, 1.5 h; 10 mM HEPES, 150 mM NaCl, pH 7.4; SDS-PAGE, silver staining; whether CaCl2 was present is not told for this lane
[4] = target: T2, Human interferon beta-1a (IFN-β, Rebif) (human), P01574; test: other fluorescence titration; tryptophan fluorescence of 0.5 µM IFN-β (excitation 295 nm) titrated by S100B; 25 °C; 10 mM HEPES-NaOH, 150 mM NaCl, 1 mM CaCl2, pH 7.4; one-site binding model; apparent; details: remark: other sources report otherwise
T2 chain: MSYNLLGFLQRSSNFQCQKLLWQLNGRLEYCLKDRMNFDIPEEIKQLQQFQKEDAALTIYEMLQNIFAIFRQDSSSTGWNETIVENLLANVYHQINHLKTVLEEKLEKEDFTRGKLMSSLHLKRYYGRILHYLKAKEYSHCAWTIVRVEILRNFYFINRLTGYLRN

[5] = target: the molecule itself; test: cross-linking; 5 µM IFN-β with 10 µM Ca2+-depleted S100B (1:2), and 10 µM apo-S100B alone; 40 mM EDAC, 10 mM sulfo-NHS, 25 °C, 1.5 h; 10 mM HEPES, 150 mM NaCl, pH 7.4, without CaCl2 and without chelator; authors say the samples could be contaminated by Ca2+

Chain of IFNAR2 ECD (Homo sapiens) (P48551 27-243): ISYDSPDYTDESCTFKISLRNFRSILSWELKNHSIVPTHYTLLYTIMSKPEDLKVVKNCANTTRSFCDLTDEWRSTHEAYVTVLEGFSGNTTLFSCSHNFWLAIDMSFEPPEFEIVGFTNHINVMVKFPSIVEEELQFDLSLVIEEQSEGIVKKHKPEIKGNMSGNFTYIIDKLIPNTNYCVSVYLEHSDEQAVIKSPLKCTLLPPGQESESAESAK

For IFN-β (from UniProt P01574), the Kd [1] is given as 0.1 nM.

B1: Human interferon beta-1a (IFN-β, Rebif) (ligand, UniProt P01574 22-187, looked up)
chain: T2 chain
notes: human interferon-β (interferon beta-1a), gene IFNB1, UniProt P01574; Drug product Rebif; also called Interferon-β; source: produced in CHO-K1 cells; bought: Merck (Rebif)
Molecule B1 has a Kd1 (ligand population 1 of the heterogeneous ligand model) [2] of 47 pM, a Kd2 (ligand population 2 of the heterogeneous ligand model) [2] of 87 nM and a kd1 (dissociation rate constant, ligand population 1 of the heterogeneous ligand model) [2] of 0.000149 s⁻¹. For the same molecule, the kd2 (dissociation rate constant, ligand population 2 of the heterogeneous ligand model) [2] was 0.013 s⁻¹, the t1/2 of dissociation (fast process) [2] was 1.67 min and the t1/2 of dissociation (slow process) [2] was > 16.7 min. B1: binds [3].

B2: Human S100B protein (natural protein)
chain: T1 chain
notes: human S100B, UniProt P04271; crystal structure of Ca2+-loaded human S100B dimer PDB 5D7F chains A and B; The authors take the S100B that was amine-coupled to the SPR chip to be partly converted to the monomer; also called apo-S100B; Ca^2+-loaded S100B
In the case of B2, the Kd [4] is reported as 21 nM, the stoichiometry N (S100B to IFN-β molar ratio) [4] is reported as 1 and the “stoichiometry N” value [5] is reported as 2.
